Tests used:
[1] = tested on: DYT-TOR1A MEF EVs; assay: Quantitative LC-MS/MS proteomics of EVs from drug-treated DYT-TOR1A MEF cultures (ritonavir, salubrinal); type: cell-based, mouse; parameters: key to RTV Corrective Direction / RTV Corrective Direction, Grwd1 / RTV Corrective Direction, Srrm2 / RTV Corrective Direction, Rbm17 / RTV Corrective Direction, Dcaf8 / RTV Corrective Direction, Edil3 / RTV Corrective Direction, Timp3 / RTV Corrective Direction, Heatr3 / RTV Corrective Direction, Brd4 / RTV Corrective Direction, P3h4 / RTV Corrective Direction, Pacsin3 / RTV Corrective Direction, Naa50 / RTV Corrective Direction, Lpar6 / RTV Corrective Direction, Ndrg1 / RTV Corrective Direction, Kntc1 / RTV Corrective Direction, Cdk11b / RTV Corrective Direction, Sumo1 / RTV Corrective Direction, Lsm4 / RTV Corrective Direction, Hmga2 / RTV Corrective Direction, Cstf1 / RTV Corrective Direction, Tes / RTV Corrective Direction, Sbno1 / RTV Corrective Direction, Unc119b / RTV Corrective Direction, Cfdp1 / RTV Corrective Direction, Sec61b: YES = protein abundance effect opposite to DYT/WT; conditions: EV protein abundance; for RTV Corrective Direction: DYT + RTV (ritonavir) vs DYT, direction compared with DYT/WT; for DYT + RTV/DYT Cohen's d: ritonavir (RTV)-treated DYT vs DYT
[2] = tested on: WT MEF EVs; assay: Quantitative LC-MS/MS proteomics of EVs from ISRIB-treated WT MEF cultures; type: cell-based, mouse; parameters: key to ISRIB and DYT Parallel Direction / ISRIB and DYT Parallel Direction, Ctdsp1 / ISRIB and DYT Parallel Direction, Pcdh19 / ISRIB and DYT Parallel Direction, Tspan7 / ISRIB and DYT Parallel Direction, Myo1e / ISRIB and DYT Parallel Direction, Plpp3 / ISRIB and DYT Parallel Direction, Sh3bp4 / ISRIB and DYT Parallel Direction, Dnajc7 / ISRIB and DYT Parallel Direction, Drg1 / ISRIB and DYT Parallel Direction, Maea: YES = protein abundance effect similar to DYT/WT; conditions: EV protein abundance; for WT + ISRIB/WT Cohen's d: ISRIB-treated WT vs WT; for ISRIB and DYT Parallel Direction: WT + ISRIB vs WT, direction compared with DYT/WT

Molecule | RTV Corrective Direction [1] | DYT + RTV/DYT Cohen's d [1] | WT + ISRIB/WT Cohen's d [2] | ISRIB and DYT Parallel Direction [2]
Scfd1 (protein, UniProt Q8BRF7 1-639, looked up) Sec1 family domain-containing …: MVGSKMAATASIRERQTVALKRMLNFNVPHVKNSTGEPVWKVLIYDRFGQDIISPLLSVKELRDMGITLHLLLHSDRDPIPDVPAVYFVMPTEENIDRLCQDLRNQLYESYYLNFISAISRSKLEDIANAALAASAVTQVAKVFDQYLNFITLEDDMFVLCNQNKELVSYRAINRPDITDTEMETVMDTIVDSLFCFFVTLGAVPIIRCSRGTAAEMVAVKLDKKLRENLRDARNSLFTGDPLGTGQFSFQRPLLVLVDRNIDLATPLHHTWTYQALVHDVLDFHLNRVNLEESTGVENSPAGARPKRKNKKSYDLTPVDKFWQKHKGSPFPEVAESVQQELESYRAQEDEVKRLKSIMGLEGEDEGAISMLSDNTAKLTSAVSSLPELLEKKRLIDLHTNVATAVLEHIKARKLDVYFEYEEKIMSKTTLDKSLLDVISDPDAGTPEDKMRLFLIYYISAQQAPSEVDLEQYKKALTDAGCNLSPLQYIKQWKAFAKMASTPASYGNTTTKPMGLLSRVMNTGSQFVMEGVKNLVLKQQNLPVTRILDNLMEMKSNPETDDYRYFDPKMLRSNDSSVPRNKSPFQEAIVFVVGGGNYIEYQNLVDYIKAKQGKHILYGCSEIFNATQFIKQLSQLGQK | YES | 4.43 | −2.48 | YES
Ddx5 (protein, UniProt Q61656 1-614, looked up) Probable ATP-dependent RNA …: MSSYSSDRDRGRDRGFGAPRFGGSRTGPLSGKKFGNPGEKLVKKKWNLDELPKFEKNFYQEHPDLARRTAQEVDTYRRSKEITVRGHNCPKPVLNFYEANFPANVMDVIARQNFTEPTAIQAQGWPVALSGLDMVGVAQTGSGKTLSYLLPAIVHINHQPFLERGDGPICLVLAPTRELAQQVQQVAAEYCRACRLKSTCIYGGAPKGPQIRDLERGVEICIATPGRLIDFLECGKTNLRRTTYLVLDEADRMLDMGFEPQIRKIVDQIRPDRQTLMWSATWPKEVRQLAEDFLKDYIHINIGALELSANHNILQIVDVCHDVEKDEKLIRLMEEIMSEKENKTIVFVETKRRCDELTRKMRRDGWPAMGIHGDKSQQERDWVLNEFKHGKAPILIATDVASRGLDVEDVKFVINYDYPNSSEDYIHRIGRTARSTKTGTAYTFFTPNNIKQVSDLISVLREANQAINPKLLQLVEDRGSGRSRGRGGMKDDRRDRYSAGKRGGFNTFRDRENYDRGYSNLLKRDFGAKTQNGVYSAANYTNGSFGSNFVSAGIQTSFRTGNPTGTYQNGYDSTQQYGSNVANMHNGMNQQAYAYPLPQAAPMIGYPMPTGYSQ | YES | 4.48 | −0.92 | YES
Add1 (protein, UniProt P35611 1-737, looked up) Alpha-adducin: MNGDSRAAVVTSPPPTTAPHKERYFDRVDENNPEYLRERNMAPDLRQDFNMMEQKKRVSMILQSPAFCEELESMIQEQFKKGKNPTGLLALQQIADFMTTNVPNVYPAAPQGGMAALNMSLGMVTPVNDLRGSDSIAYDKGEKLLRCKLAAFYRLADLFGWSQLIYNHITTRVNSEQEHFLIVPFGLLYSEVTASSLVKINLQGDIVDRGSTNLGVNQAGFTLHSAIYAARPDVKCVVHIHTPAGAAVSAMKCGLLPISPEALSLGEVAYHDYHGILVDEEEKVLIQKNLGPKSKVLILRNHGLVSVGESVEEAFYYIHNLVVACEIQVRTLASAGGPDNLVLLNPEKYKAKSRSPGSPVGEGTGSPPKWQIGEQEFEALMRMLDNLGYRTGYPYRYPALREKSKKYSDVEVPASVTGYSFASDGDSGTCSPLRHSFQKQQREKTRWLNSGRGDEASEEGQNGSSPKSKTKWTKEDGHRTSTSAVPNLFVPLNTNPKEVQEMRNKIREQNLQDIKTAGPQSQVLCGVVMDRSLVQGELVTASKAIIEKEYQPHVIVSTTGPNPFTTLTDRELEEYRREVERKQKGSEENLDEAREQKEKSPPDQPAVPHPPPSTPIKLEEDLVPEPTTGDDSDAATFKPTLPDLSPDEPSEALGFPMLEKEEEAHRPPSPTEAPTEASPEPAPDPAPVAEEAAPSAVEEGAAADPGSDGSPGKSPSKKKKKFRTPSFLKKSKKKSDS | YES | 4.30 | 0.00 | YES
Plekho2 (protein, UniProt Q8K124 1-495, looked up) Pleckstrin homology …: MEEESIKEGSEKPRGARTADKAGWIKKSSGGLLGLWKDRYLLLCQAQLLVYENEDEQKCVETVELGSYEKCQDLRTLLKRKHHRFILLRSPGNKVSDIKFQAPSGEEKESWIKALNEGINRGKNKAFDEVKVDKTCALEHVTRNRVRGGQRRRPPTRIHLKEVASAASDGLSRLDLDVPDSGPPVFAPLSDISEDQPQEPPRALMPPVKPSPGPETSAVEDSKETPAGERALTPDSASSGANPESQEDAETPAKEDSDVKSLPNSTLSEKLKVSWENPSPEKPSAPESAQLSSSETPEATPRESKKPPAPPPKILSEKMKACMSGVDASGSSQSSEAPETTSPEPTQVSVNGMDDGPESALQAMGIPGPAPEDAAASPALPFSDLPSQFHPRSSSLGDLLRESPQHPRLPKEKLYRAQLEVKVASKQTEKLLNQVLGSEPPPVCAESLLSQAVEQLRQATQVLQEMRDLGELNQETPGLVQKRKELVTLYRRSAP | YES | −5.03 | 0.14 | YES
Dbn1 (protein, UniProt Q16643 2-649, looked up) Drebrin: AGVSFSGHRLELLAAYEEVIREESAADWALYTYEDGSDDLKLAASGEGGLQELSGHFENQKVMYGFCSVKDSQAALPKYVLINWVGEDVPDARKCACASHVAKVAEFFQGVDVIVNASSVEDIDAGAIGQRLSNGLARLSSPVLHRLRLREDENAEPVGTTYQKTDAAVEMKRINREQFWEQAKKEEELRKEEERKKALDERLRFEQERMEQERQEQEERERRYREREQQIEEHRRKQQTLEAEEAKRRLKEQSIFGDHRDEEEETHMKKSESEVEEAAAIIAQRPDNPREFFKQQERVASASAGSCDVPSPFNHRPGSHLDSHRRMAPTPIPTRSPSDSSTASTPVAEQIERALDEVTSSQPPPLPPPPPPAQETQEPSPILDSEETRAAAPQAWAGPMEEPPQAQAPPRGPGSPAEDLMFMESAEQAVLAAPVEPATADATEIHDAADTIETDTATADTTVANNVPPAATSLIDLWPGNGEGASTLQGEPRAPTPPSGTEVTLAEVPLLDEVAPEPLLPAGEGCATLLNFDELPEPPATFCDPEEVEGESLAAPQTPTLPSALEELEQEQEPEPHLLTNGETTQKEGTQASEGYFSQSQEEEFAQSEELCAKAPPPVFYNKPPEIDITCWDADPVPEEEEGFEGGD | YES | 4.58 | −3.18 | YES
Psmd1 (protein, UniProt Q3TXS7 1-953, looked up) 26S proteasome non-ATPase …: MITSAAGIISLLDEEEPQLKEFALHKLNAVVNDFWAEISESVDKIEVLYEDEGFRSRQFAALVASKVFYHLGAFEESLNYALGAGDLFNVNDNSEYVETIIAKCIDHYTKQCVENADLPEGEKKPIDQRLEGIVNKMFQRCLDDHKYKQAIGIALETRRLDVFEKTILESNDVPGMLAYSLKLCMSLMQNKQFRNKVLRVLVKIYMNLEKPDFINVCQCLIFLDDPQAVSDILEKLVKEDNLLMAYQICFDLYESASQQFLSSVIQNLRTVGTPIASVPGSTNTGTVPGSEKDSDPMETEEKTASAVAGKTPDASPEPKDQTLKMIKILSGEMAIELHLQFLIRNNNTDLMILKNTKDAVRNSVCHTATVIANSFMHCGTTSDQFLRDNLEWLARATNWAKFTATASLGVIHKGHEKEALQLMATYLPKDTSPGSAYQEGGGLYALGLIHANHGGDIIDYLLNQLKNASNDIVRHGGSLGLGLAAMGTARQDVYDLLKTNLYQDDAVTGEAAGLALGLVMLGSKNAQAIEDMVGYAQETQHEKILRGLAVGIALVMYGRMEEADALIESLCRDKDPILRRSGMYTVAMAYCGSGNNKAIRRLLHVAVSDVNDDVRRAAVESLGFILFRTPEQCPSVVSLLSESYNPHVRYGAAMALGICCAGTGNKEAINLLEPMTNDPVNYVRQGALIASALIMIQQTEITCPKVNQFRQLYSKVINDKHDDVMAKFGAILAQGILDAGGHNVTISLQSRTGHTHMPSVVGVLVFTQFWFWFPLSHFLSLAYTPTCVIGLNKDLKMPKVQYKSNCKPSTFAYPAPLEVPKEKEKEKVSTAVLSITAKAKKKEKEKEKKEEEKMEVDEAEKKEEKEKKKEPEPNFQLLDNPARVMPAQLKVLSMTETCRYQPFKPLSIGGIIILKDTSEDVEELVEPVAAHGPKIEEEEQEPEPPEPFEYIDD | YES | 4.33 | −0.65 | YES
Capg (protein, UniProt P24452 1-352, looked up) Macrophage-capping protein: MYTPIPQSGSPFPASVQDPGLHIWRVEKLKPVPIARESHGIFFSGDSYLVLHNGPEEASHLHLWIGQQSSRDEQGACAVLAVHLNTLLGERPVQHREVQGNESDLFMSYFPRGLKYYREGGVESAFHKTTSGARGAAIRKLYQVKGKKNIRATERPLSWDSFNTGDCFILDLGQNIFAWCGGKSNILERNKARDLALAIRDSERQGKAQVEIITDGEEPAEMIQVLGPKPALKEGNPEEDITADQTRPNAQAAALYKVSDATGQMNLTKVADSSPFASELLIPDDCFVLDNGLCAQIYIWKGRKANEKERQAALQVADGFISRMRYSPNTQVEILPQGRESPIFKQFFKNWK | YES | 3.57 | −0.61 | YES

Reference: patent US20260266848A1, “COMPOSITIONS AND METHODS FOR DIAGNOSING AND TREATING DYSTONIA” (Duke University, priority 2023, published 2026)
